Laboratory results from PMC3399781.

Assays:
[1] = molecular target: 1GS mGRFT (GRFT with GS inserted between Ser16 and Gly17) (Griffithsia sp.) (UniProt P84801); test: AUC
[2] = molecular target: HIV-1 glycoprotein gp120 (HIV-1) (UniProt P04578); test: ITC

1GS mGRFT (GRFT with GS inserted between Ser16 and Gly17) (from UniProt P84801 1-121) (natural protein)
Kd [1]: 120 µM

1GS-S mGRFT (L2S variant of 1GS) (from UniProt P84801 1-121) (natural protein)
Kd [2]: 0.112 µM | dH [2]: -35.5 kcal/mol
